Experimental findings from paper PMC4631118 (Molecular microbiology, 2012) are described below.

Experiment [1] concerns the target T1, MBP-A2 (Qβ lysis protein A2 fused to E. coli maltose-binding protein) (bacteriophage Qβ, UniProt Q8LTE2 1-420).
T1 sequence (looked up): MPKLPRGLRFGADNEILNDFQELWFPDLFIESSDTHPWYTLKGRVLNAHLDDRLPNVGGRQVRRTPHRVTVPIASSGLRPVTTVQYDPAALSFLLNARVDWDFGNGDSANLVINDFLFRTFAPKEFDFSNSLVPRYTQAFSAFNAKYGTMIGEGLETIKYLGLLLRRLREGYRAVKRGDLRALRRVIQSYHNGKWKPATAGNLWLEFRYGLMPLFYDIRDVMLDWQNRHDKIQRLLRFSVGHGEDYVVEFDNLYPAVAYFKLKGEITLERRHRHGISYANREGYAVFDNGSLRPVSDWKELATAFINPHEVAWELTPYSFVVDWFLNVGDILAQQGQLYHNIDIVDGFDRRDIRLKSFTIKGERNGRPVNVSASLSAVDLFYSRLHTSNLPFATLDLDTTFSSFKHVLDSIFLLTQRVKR
Briefly: pull-down.

Experiment [2] concerns the target T2, A2 cleaved from the MBP fusion protein with TEV protease (bacteriophage Qβ, UniProt Q8LTE2 1-420).
T2 sequence (looked up): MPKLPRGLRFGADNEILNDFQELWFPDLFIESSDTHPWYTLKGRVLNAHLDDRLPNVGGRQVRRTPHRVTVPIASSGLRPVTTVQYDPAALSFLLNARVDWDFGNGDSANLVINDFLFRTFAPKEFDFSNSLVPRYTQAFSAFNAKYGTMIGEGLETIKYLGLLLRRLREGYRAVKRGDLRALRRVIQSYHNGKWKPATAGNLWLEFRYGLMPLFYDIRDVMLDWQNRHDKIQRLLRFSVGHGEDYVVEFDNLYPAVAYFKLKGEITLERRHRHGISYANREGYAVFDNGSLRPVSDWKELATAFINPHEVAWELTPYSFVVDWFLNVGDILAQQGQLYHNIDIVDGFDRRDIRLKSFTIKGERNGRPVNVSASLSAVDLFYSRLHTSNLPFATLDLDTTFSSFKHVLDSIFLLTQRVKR
As to the kind of experiment: fusion cleavage assay.

B1: MurA (E. coli), purified, with C-terminal oligo-histidine tag (enzyme)
chain: MDKFRVQGPTKLQGEVTISGAKNAALPILFAALLAEEPVEIQNVPKLKDVDTSMKLLSQLGAKVERNGSVHIDARDVNVFCAPYDLVKTMRASIWALGPLVARFGQGQVSLPGGCTIGARPVDLHISGLEQLGATIKLEEGYVKASVDGRLKGAHIVMDKVSVGATVTIMCAATLAEGTTIIENAAREPEIVDTANFLITLGAKISGQGTDRIVIEGVERLGGGVYRVLPDRIETGTFLVAAAISRGKIICRNAQPDTLDAVLAKLRDAGADIEVGEDWISLDMHGKRPKAVNVRTAPHPAFPTDMQAQFTLLNLVAEGTGFITETVFENRFMHVPELSRMGAHAEIESNTVICHGVEKLSGAQVMATDLRASASLVLAGCIAEGTTVVDRIYHIDRGYERIEDKLRALGANIERVKGE
As to B1, the binding result in experiment [1] is recorded as “binds”.

B2: MurA^D305A, purified (enzyme, E. coli)
chain: MDKFRVQGPTKLQGEVTISGAKNAALPILFAALLAEEPVEIQNVPKLKDVDTSMKLLSQLGAKVERNGSVHIDARDVNVFCAPYDLVKTMRASIWALGPLVARFGQGQVSLPGGCTIGARPVDLHISGLEQLGATIKLEEGYVKASVDGRLKGAHIVMDKVSVGATVTIMCAATLAEGTTIIENAAREPEIVDTANFLITLGAKISGQGTDRIVIEGVERLGGGVYRVLPDRIETGTFLVAAAISRGKIICRNAQPDTLDAVLAKLRDAGADIEVGEDWISLDMHGKRPKAVNVRTAPHPAFPTAMQAQFTLLNLVAEGTGFITETVFENRFMHVPELSRMGAHAEIESNTVICHGVEKLSGAQVMATDLRASASLVLAGCIAEGTTVVDRIYHIDRGYERIEDKLRALGANIERVKGE
In the case of B2, in experiment [2], the binding result is “binds”.
